Experimental findings from patent US20050170451A1 are described below.

Assay [1] has as its target soluble fragment of human IgE receptor (FcεRI) α chain (human) (UniProt P12319). Kind of assay: competition ELISA: inhibition of binding of biotin-labeled FcεRI α chain (55 ng/mL) to immobilized human IgE.
For assay [2] the target is unchanged. Kind of assay: SPR (BIAcore), purified scFv.
For assay [3] the target is unchanged. Kind of assay: competition ELISA: inhibition of binding of biotin-labeled FcεRI α chain (55 ng/mL) to immobilized human IgE, at scFv >= 100 µg/ml. In general terms: In an ELISA, binding on a coated surface is turned into a signal by an enzyme label.

Chain of UniProt P12319 (P12319 26-197 limits assumed): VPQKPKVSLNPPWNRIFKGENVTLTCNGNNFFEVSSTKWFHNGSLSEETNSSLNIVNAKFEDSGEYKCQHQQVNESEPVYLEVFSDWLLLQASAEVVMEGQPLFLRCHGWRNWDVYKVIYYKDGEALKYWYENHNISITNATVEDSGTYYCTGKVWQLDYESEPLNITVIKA

B1: αFcR51 scFv (human anti-human FcεRI α chain single-chain Fv clone) (scFv, part only; not given: VH-VL linker and E tag, V domains shown, not shown: another chain or arm of the molecule; small tags and cut ends)
VH: QVQLQEWGGGLVQPGGSLRLSCAASGFTVSSNYMSWVRQAPGKGLEWVSVIYRGGSGDNTYYAGSVKGRFTISRDNSKNTVYLQMNSLRAEDTAVYYCVRSSDVGYGILRGYMDVWGKGTTVTVSS
VL: HVILTQPPSVSVSPGQTARIPCSGQDLTNKYVSWYQLQSGQSPALVIYEDSKRPSGIPERFSGSNSGDTATLTITGTQAADEADFFCQAYDTNGWVFGAGTKLTVL
With B1, in assay [1], the scFv concentration at which inhibition is seen is above 0.1 µg/mL. Besides, the equilibrium dissociation constant (Kd) in assay [2] stood at 5.8 nM. In assay [3], this molecule had an inhibition rate above 90%.

Usually Kd stands for the constant that tells how readily two partners part at equilibrium. Read a high Kd as lower affinity.
